Measured values reported in paper PMC9464622 (2022).

Target: T1, LL-37 (Homo sapiens, UniProt P49913)
T1 chain: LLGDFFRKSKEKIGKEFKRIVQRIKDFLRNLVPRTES
Assay: tryptophan fluorescence

Kd: 1.22 nM
B1: rfhSP-A trimeric recombinant fragment (protein)
chain: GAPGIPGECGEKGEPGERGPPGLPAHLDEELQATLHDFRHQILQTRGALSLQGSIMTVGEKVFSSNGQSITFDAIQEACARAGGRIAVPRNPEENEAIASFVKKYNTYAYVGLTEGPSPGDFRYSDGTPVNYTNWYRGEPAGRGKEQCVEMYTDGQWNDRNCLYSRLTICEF
